From US20160145299A1 (CENTRE NATIONAL DE LA RECHERCHE SCIENTIFIQUE, published 2016)
Where no end group is shown, it is not given here.

Target: cdk2/cyclin A complex (UniProt P24941 1-298; P20248 1-432)
Assay: cell-based or functional assay

Binder: KKQVRMAHLVLT (also: fluorescent label Cy5 or FITC, position not given here) [Peptide targeting CDK/Cyclin C4: KKQVRMAHLVLT (SEQ ID No: 8)]
- IC50 of cell proliferation, Hela, C4 delivered with Short6: 80 nM
- IC50 of cell proliferation, Hela, C4 delivered with short7: 45 nM
- IC50 of cell proliferation, Hela, C4 delivered with short11: 150 nM
- IC50 of cell proliferation, MCF7, C4 delivered with Short6: 50 nM
- IC50 of cell proliferation, MCF7, C4 delivered with short7: 80 nM
- IC50 of cell proliferation, MCF7, C4 delivered with short11: 200 nM
